The data set deals with Escherichia coli TOP10. The data set can be described thus: shrunken log2 fold change of peptide-encoding DNA abundance (4.5 h post-induction vs induction); higher = less antimicrobial activity (less host growth inhibition). The note with it: time post-induction: 4.5 h; library: site-saturation at positions 5, 18, 19, 20.

Consider 125 sequences from the supplement of paper PMC9112550, “Optimization of the antimicrobial peptide Bac7 by deep mutational scanning” (BMC Biology, 2022).
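Note: peptides expressed intracellularly from a pBAD plasmid library in pooled LB shake-flask culture, induced with 0.3% L-arabinose, DNA abundance read by NGS, three biological replicates, DESeq2 with apeglm shrinkage.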

Take RRIRWRPPRLPRPRPRPHDIPRP: the “shrunken log2 fold change” value worked out at 0.00165.
The same measure for RRIRKRPPRLPRPRPRPRRFPRP: 0.39; for RRIRDRPPRLPRPRPRPNQSPRP: -0.527; for RRIRHRPPRLPRPRPRPWMTPRP: -0.225.
As to RRIRPRPPRLPRPRPRPAVGPRP, the “shrunken log2 fold change” value was 0.414.
The same measure for RRIRYRPPRLPRPRPRPWIRPRP: -0.371; for RRIRRRPPRLPRPRPRPVHCPRP: 0.345.
The same measure for RRIRIRPPRLPRPRPRPVTMPRP: -1.03.
The value for RRIRERPPRLPRPRPRPELWPRP was 0.273.
On to RRIRTRPPRLPRPRPRPPFGPRP, for which the “shrunken log2 fold change” value came out at 0.0407.
The value for RRIRQRPPRLPRPRPRPCCEPRP was -0.256.
Take RRIRWRPPRLPRPRPRPFPTPRP: the “shrunken log2 fold change” value is -0.12.
As to RRIRSRPPRLPRPRPRPHMNPRP, the “shrunken log2 fold change” value is -0.548.
The same measure for RRIRTRPPRLPRPRPRPEDNPRP: 0.168.
The same measure for RRIRWRPPRLPRPRPRPKAHPRP: 0.197; for RRIRRRPPRLPRPRPRPQYWPRP: -0.147.
RRIRMRPPRLPRPRPRPQGAPRP: the “shrunken log2 fold change” value amounted to 0.124.
The value for RRIRRRPPRLPRPRPRPCNHPRP was -0.011; that for RRIRARPPRLPRPRPRPWHDPRP was -0.00134.
The same measure for RRIRYRPPRLPRPRPRPTDHPRP: -0.254; for RRIRWRPPRLPRPRPRPKVHPRP: -0.136; for RRIRNRPPRLPRPRPRPIGHPRP: -0.0117.
Regarding RRIRFRPPRLPRPRPRPLCIPRP, the “shrunken log2 fold change” value is -0.571.
RRIRMRPPRLPRPRPRPLFIPRP: the “shrunken log2 fold change” value was -0.643.
The value for RRIRSRPPRLPRPRPRPEEMPRP was -0.0122.
The value for RRIRCRPPRLPRPRPRPPYVPRP was -0.455; that for RRIRQRPPRLPRPRPRPFFLPRP was -0.376; that for RRIRIRPPRLPRPRPRPLCQPRP was 0.127.
The value for RRIRARPPRLPRPRPRPSSTPRP was -0.0285.
Regarding RRIRPRPPRLPRPRPRPTLGPRP, the “shrunken log2 fold change” value worked out at 0.564.
Take RRIRGRPPRLPRPRPRPGTPPRP: the “shrunken log2 fold change” value was 0.919.
The same measure for RRIRPRPPRLPRPRPRPMDIPRP: -0.158; for RRIRYRPPRLPRPRPRPESGPRP: -0.0308; for RRIRCRPPRLPRPRPRPLRHPRP: 0.479.
The value for RRIRVRPPRLPRPRPRPLQSPRP was 0.12.
Consider RRIRSRPPRLPRPRPRPSENPRP, for which the “shrunken log2 fold change” value is -0.113.
The value for RRIRNRPPRLPRPRPRPMIAPRP was -0.42.
The value for RRIRNRPPRLPRPRPRPWIAPRP was -0.135.
The same measure for RRIRSRPPRLPRPRPRPYYIPRP: -0.461.
Take RRIRWRPPRLPRPRPRPEMKPRP: the “shrunken log2 fold change” value was 0.271.
The value for RRIRTRPPRLPRPRPRPMAGPRP was -0.109; that for RRIRPRPPRLPRPRPRPAPWPRP was 0.436.
With RRIRKRPPRLPRPRPRPKLKPRP, the “shrunken log2 fold change” value stood at 0.585.
The value for RRIRDRPPRLPRPRPRPLHMPRP was -0.0438; that for RRIRERPPRLPRPRPRPLWRPRP was 0.0888.
Turning to RRIRTRPPRLPRPRPRPNYYPRP, the “shrunken log2 fold change” value is -0.66.
RRIRNRPPRLPRPRPRPIFFPRP: the “shrunken log2 fold change” value came out at 0.0887.
For RRIRNRPPRLPRPRPRPFSRPRP, the “shrunken log2 fold change” value is -0.000753.
As to RRIRMRPPRLPRPRPRPQSYPRP, the “shrunken log2 fold change” value was found to be 0.00618.
Consider RRIRFRPPRLPRPRPRPFEHPRP, for which the “shrunken log2 fold change” value was -0.0558.
The value for RRIRYRPPRLPRPRPRPFWLPRP was -0.0817; that for RRIRWRPPRLPRPRPRPSAQPRP was 0.422; that for RRIRIRPPRLPRPRPRPCTCPRP was -0.652.
For the sequence RRIRERPPRLPRPRPRPAHKPRP, the “shrunken log2 fold change” value was -0.154.
The value for RRIRERPPRLPRPRPRPEWLPRP was -0.062; that for RRIRIRPPRLPRPRPRPWCHPRP was -0.122.
The value for RRIRFRPPRLPRPRPRPVADPRP was -0.00475.
The value for RRIRYRPPRLPRPRPRPINNPRP was -0.892.
RRIRARPPRLPRPRPRPILYPRP: the “shrunken log2 fold change” value was -0.348.
The same measure for RRIRERPPRLPRPRPRPNMAPRP: -0.163; for RRIRCRPPRLPRPRPRPKNWPRP: 0.331.
The same measure for RRIRGRPPRLPRPRPRPEDGPRP: 1.31.
The value for RRIRGRPPRLPRPRPRPQGHPRP was 0.278.
For the sequence RRIRERPPRLPRPRPRPCFEPRP, the “shrunken log2 fold change” value is -0.258.
The same measure for RRIRCRPPRLPRPRPRPQPIPRP: -0.335; for RRIRLRPPRLPRPRPRPYPHPRP: -0.323.
The value for RRIRDRPPRLPRPRPRPNWIPRP was -0.389; that for RRIRQRPPRLPRPRPRPPGRPRP was 0.853; that for RRIRARPPRLPRPRPRPFITPRP was -0.543.
The value for RRIRCRPPRLPRPRPRPLAHPRP was -0.0666.
Turning to RRIRSRPPRLPRPRPRPHCVPRP, the “shrunken log2 fold change” value is -0.0724.
Regarding RRIRTRPPRLPRPRPRPPPRPRP, the “shrunken log2 fold change” value was 1.36.
The same measure for RRIRIRPPRLPRPRPRPKMSPRP: -0.327.
The same measure for RRIRTRPPRLPRPRPRPISQPRP: -0.0474.
The same measure for RRIRHRPPRLPRPRPRPECNPRP: -0.0866.
Regarding RRIRFRPPRLPRPRPRPNEFPRP, the “shrunken log2 fold change” value was -0.0262.
The same measure for RRIRQRPPRLPRPRPRPCGGPRP: 0.257; for RRIRCRPPRLPRPRPRPMDYPRP: -0.181; for RRIRTRPPRLPRPRPRPGMNPRP: -0.15.
The same measure for RRIRVRPPRLPRPRPRPSDWPRP: -0.102; for RRIRHRPPRLPRPRPRPYENPRP: -0.0765; for RRIRKRPPRLPRPRPRPNLHPRP: -0.184.
Take RRIRYRPPRLPRPRPRPGFDPRP: the “shrunken log2 fold change” value was -0.205.
On to RRIRNRPPRLPRPRPRPMRSPRP, for which the “shrunken log2 fold change” value stood at 1.09.
The value for RRIRCRPPRLPRPRPRPLLDPRP was 0.0618; that for RRIRVRPPRLPRPRPRPWNQPRP was 0.0232; that for RRIRHRPPRLPRPRPRPKVRPRP was -0.0711.
For the sequence RRIRTRPPRLPRPRPRPNCIPRP, the “shrunken log2 fold change” value is -0.288.
The value for RRIRVRPPRLPRPRPRPLCQPRP was 0.258; that for RRIRDRPPRLPRPRPRPCKEPRP was 0.00884; that for RRIRTRPPRLPRPRPRPLFCPRP was -0.287.
The value for RRIRFRPPRLPRPRPRPMFYPRP was -1.51; that for RRIRYRPPRLPRPRPRPDYCPRP was -0.00674.
The value for RRIRHRPPRLPRPRPRPWPPPRP was 0.491; that for RRIRKRPPRLPRPRPRPCFTPRP was 0.135.
With RRIRQRPPRLPRPRPRPCTVPRP, the “shrunken log2 fold change” value is -0.521.
The value for RRIRPRPPRLPRPRPRPRYGPRP was 0.00536.
The same measure for RRIRYRPPRLPRPRPRPFPGPRP: -0.253.
For the sequence RRIRSRPPRLPRPRPRPGTNPRP, the “shrunken log2 fold change” value is -0.188.
The same measure for RRIRGRPPRLPRPRPRPIYAPRP: 0.14; for RRIRIRPPRLPRPRPRPMLYPRP: -0.33; for RRIRIRPPRLPRPRPRPTYRPRP: -0.0791.
On to RRIRHRPPRLPRPRPRPAQIPRP, for which the “shrunken log2 fold change” value stood at 0.276.
Turning to RRIRWRPPRLPRPRPRPAYTPRP, the “shrunken log2 fold change” value stood at 0.0906.
As for RRIRLRPPRLPRPRPRPTQTPRP, the “shrunken log2 fold change” value was -0.0101.
The same measure for RRIRFRPPRLPRPRPRPQPYPRP: -0.34.
The same measure for RRIRLRPPRLPRPRPRPEAHPRP: -0.187; for RRIRMRPPRLPRPRPRPCKMPRP: 0.0367.
The value for RRIRFRPPRLPRPRPRPCFPPRP was -0.407; that for RRIRARPPRLPRPRPRPGSSPRP was -0.112; that for RRIRRRPPRLPRPRPRPRTVPRP was 0.693.
For the sequence RRIRSRPPRLPRPRPRPYWYPRP, the “shrunken log2 fold change” value was -1.45.
As for RRIRQRPPRLPRPRPRPACLPRP, the “shrunken log2 fold change” value was found to be 0.14.
As for RRIRDRPPRLPRPRPRPVCIPRP, the “shrunken log2 fold change” value came out at 0.0226.
With RRIRSRPPRLPRPRPRPVERPRP, the “shrunken log2 fold change” value was determined as 0.187.
The value for RRIRSRPPRLPRPRPRPRARPRP was 0.408; that for RRIRQRPPRLPRPRPRPVMFPRP was -0.0919; that for RRIRPRPPRLPRPRPRPNGRPRP was -0.00968.
The same measure for RRIRTRPPRLPRPRPRPVFMPRP: -0.25; for RRIRSRPPRLPRPRPRPIRTPRP: -0.207.
For RRIRARPPRLPRPRPRPCWGPRP, the “shrunken log2 fold change” value amounted to 0.205.
The value for RRIRKRPPRLPRPRPRPHWMPRP was 0.0937; that for RRIRTRPPRLPRPRPRPPTKPRP was 0.674; that for RRIRKRPPRLPRPRPRPQEAPRP was -0.000925.
The value for RRIRFRPPRLPRPRPRPLIQPRP was -0.289.
